Residue numbers refer to the chain shown, from its start. Names and notes keep the numbering of the source.
B1: H39R N43H: M. sedula succinic semialdehyde reductase double mutant H39R N43H, SEQ ID No. 36 (protein, listed as Metallosphaera sedula)
chain: MKAAVLHTYKEPLSIEDVNISQPKAGEVKIKVKATGLCRSDVHVFEGKTPVPPPVVAGHEISGIVEEVGPGVTRVKPGDRVISAFIHPCGKCGNCVAGKENLCETFSQVRLKGVMPDGTSRLSKDGKEIRTFLGGGFAEYAIVGENALTRVPEDMDLEKVAVLGCAGLTGYGAISSSKIEPGDTVAVIGVGGVGLSTIQLLRASGAGRIIAVGTKKWKLDRAMELGATDVVNSKEIDPVKAIKEITGGGPQVVIEAGGNEDTIHMALDSVRIGGKVVLVGLPPATAMIPIRVASIVRGGIEVVGNYGGRPRVDMPKLLELVRQGRYDPSRLVTGRFRLEEINEAVKMLEEGEAIRSLIIP
B2: Ms-SSR: succinic semialdehyde reductase from Metallosphaera sedula, SEQ ID No. 16 (protein, listed as Metallosphaera sedula)
chain: B1 chain with R39H, H43N
B3: 4hbdh: 4-hydroxybutyrate dehydrogenase of P. gingivalis, SEQ ID No. 187 (protein, listed as Porphyromonas gingivalis)
chain: MQLFKLKSVTHHFDTFAEFAKEFCLGERDLVITNEFIYEPYMKACQLPCHFVMQEKYGQGEPSDEMMNNILADIRNIQFDRVIGIGGGTVIDISKLFVLKGLNDVLDAFDRKIPLIKEKELIIVPTTCGTGSEVTNISIAEIKSRHTKMGLADDAIVADHAIIIPELLKSLPFHFYACSAIDALIHAIESYVSPKASPYSRLFSEAAWDIILEVFKKIAEHGPEYRFEKLGEMIMASNYAGIAFGNAGVGAVHALSYPLGGNYHVPHGEANYQFFTEVFKVYQKKNPFGYIVELNWKLSKILNCQPEYVYPKLDELLGCLLTKKPLHEYGMKDEEVRGFAESVLKTQQRLLANNYVELTVDEIEGIYRRLY
B4: YqhD: alcohol dehydrogenase of E. coli, SEQ ID No. 185 (protein, listed as Escherichia coli)
chain: MNNFNLHTPTRILFGKGAIAGLREQIPHDARVLITYGGGSVKKTGVLDQVLDALKGMDVLEFGGIEPNPAYETLMNAVKLVREQKVTFLLAVGGGSVLDGTKFIAAAANYPENIDPWHILQTGGKEIKSAIPMGCVLTLPATGSESNAGAVISRKTTGDKQAFHSAHVQPVFAVLDPVYTYTLPPRQVANGVVDAFVHTVEQYVTKPVDAKIQDRFAEGILLTLIEDGPKALKEPENYDVRANVMWAATQALNGLIGAGVPQDWATHMLGHELTAMHGLDHAQTLAIVLPALWNEKRDTKRAKLLQYAERVWNITEGSDDERIDAAIAATRNFFEQLGVPTHLSDYGLDGSSIPALLKKLEEHGMTQLGENHDITLDVSRRIYEAAR
B5: YPR1: methylbutyraldehyde reductase from Saccharomyces cerevisiae, SEQ ID No. 14 (protein, listed as Saccharomyces cerevisiae)
chain: MPATLKNSSATLKLNTGASIPVLGFGTWRSVDNNGYHSVIAALKAGYRHIDAAAIYLNEEEVGRAIKDSGVPREEIFITTKLWGTEQRDPEAALNKSLKRLGLDYVDLYLMHWPVPLKTDRVTDGNVLCIPTLEDGTVDIDTKEWNFIKTWELMQELPKTGKTKAVGVSNFSINNIKELLESPNNKVVPATNQIEIHPLLPQDELIAFCKEKGIVVEAYSPFGSANAPLLKEQAIIDMAKKHGVEPAQLIISWSIQRGYVVLAKSVNPERIVSNFKIFTLPEDDFKTISNLSKVHGTKRVVDMKWGSFPIFQ

Test: Test for malate semialdehyde reductase (DHB dehydrogenase) activity
Type: biochemical
Details: for Activity on malate semialdehyde (cofactor NADH) / Activity on malate semialdehyde (cofactor NADPH): 10 mM malate semialdehyde, 30° C., average of at least two experiments
Procedure: Test for Malate Semialdehyde Reductase Activity: (L)-Malate semialdehyde+NAD(P)H→(L)-2,4-dihydroxybutyric acid+NAD(P) Reaction scheme:
The assay mixture contained 200 mM Hepes (pH 7.5), 50 mM KCl, 5 mM MgCl2, 0.24 mM NADH or NADPH, and appropriate amounts of purified enzyme or cell extract. Reactions were started by adding 10 mM (L)-malate semialdehyde (malate semialdehyde was prepared freshly for each test, see Example 3). Enzymatic assays were carried out at 30° C. in 96-well flat bottomed microtiter plates in a final volume of 250 μL. The reactions were followed by the characteristic absorption of NAD(P)H at 340 nm (εNADPH=6.22 mM^−1 cm^−1) in a microplate reader (BioRad 680XR).

| Molecule | affinity for malate semialdehyde compared to the wild type enzyme (in words) | Activity on malate semialdehyde (cofactor NADH) | Activity on malate semialdehyde (cofactor NADPH) |
| --- | --- | --- | --- |
| B1 | improved affinity | – | – |
| B2 | – | 4.9 μmol/(min * mg_prot) | 4.9 μmol/(min * mg_prot) |
| B3 | – | 33 μmol/(min * mg_prot) | – |
| B4 | – | – | 1.2 μmol/(min * mg_prot) |
| B5 | – | – | 0.19 μmol/(min * mg_prot) |

From patent US9890400B2, “Method of production of 2,4-dihydroxybutyric acid” (ADISSEO FRANCE S.A.S., priority 2012, dated 2018)
